Source: doi:10.1101/2023.01.09.523197 (bioRxiv, 2023)

Target: the molecule itself
Experiment: crystal structure

B1: Saccharopolyspora erythraea GlnR-DBD (domain or fragment)
chain: DGMLTVGDLVIEESTYTARLKGRALELTYKEFELLKYLAQHAGRVFTRAQLLQEVWGYDFFGGTRTVDVHVRRLRAKLGPEYDSMIGTVRNVGYKFVRPS
Question: Does B1 bind?
Answer: binds
